According to PMC10907630:

System: tau ΔMTBD-DBR (1N4R) del242-265, P10636-7
Experiment: EMSA
Conditions: 10 mM NaCl; text gives 430; EMSA: 20 nM DNA or nucleosome, 20 mM HEPES pH 7.2, 10 mM NaCl (or 150), 0.5 mM TCEP, 0.1% Tween-20, 5% sucrose, room temperature 20 min; FA: 10 nM DNA, same …

Sequence of tau ΔMTBD-DBR (1N4R) del242-265, P10636-7 (P10636 other isoform, or with tags, fused parts or gaps mutant): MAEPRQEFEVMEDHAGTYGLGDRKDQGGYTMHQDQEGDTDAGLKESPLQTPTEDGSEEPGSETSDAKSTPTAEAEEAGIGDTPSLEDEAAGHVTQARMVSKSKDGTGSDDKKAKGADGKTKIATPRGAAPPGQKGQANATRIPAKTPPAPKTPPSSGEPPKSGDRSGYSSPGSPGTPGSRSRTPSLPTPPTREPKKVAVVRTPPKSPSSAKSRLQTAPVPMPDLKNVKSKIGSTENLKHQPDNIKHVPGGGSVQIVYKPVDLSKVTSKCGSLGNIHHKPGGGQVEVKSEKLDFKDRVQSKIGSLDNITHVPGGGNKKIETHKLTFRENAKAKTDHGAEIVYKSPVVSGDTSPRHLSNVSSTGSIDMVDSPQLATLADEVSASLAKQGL

For “ACTACGCGGCCGCCCTGGAGAATCCCGGTGCCGAGGCCGCTCAATTGGTCGTAGACAGCTCTAGCACCGCTTAAACGCACGTACGCGCTGTCCCCCGCGTTTTAACCGCCAAGGGGATTACTCCCTAGTCTCCAGGCACGTGTCAGATATATACATCCTGTGCATGTAAGATCCAGT (double strand) [177 bp DNA (601)]”, the Kd was 427 nM.
